# Columns and labels:
# [1] = target: Pre10 proteasome subunit C-terminally fused with Fpr1 (strain Pre10-FPR1) (S. cerevisiae) (UniProt P21242); test: cell-based or functional assay
# [2] = target: Rpn10 proteasome subunit C-terminally fused with Fpr1 (strain Rpn10-FPR1) (S. cerevisiae) (UniProt P38886); test: cell-based or functional assay
# Sequence of Rpn10 proteasome subunit C-terminally fused with Fpr1 (strain Rpn10-FPR1) (S. cerevisiae) (P38886 other isoform, or with tags, fused parts or gaps): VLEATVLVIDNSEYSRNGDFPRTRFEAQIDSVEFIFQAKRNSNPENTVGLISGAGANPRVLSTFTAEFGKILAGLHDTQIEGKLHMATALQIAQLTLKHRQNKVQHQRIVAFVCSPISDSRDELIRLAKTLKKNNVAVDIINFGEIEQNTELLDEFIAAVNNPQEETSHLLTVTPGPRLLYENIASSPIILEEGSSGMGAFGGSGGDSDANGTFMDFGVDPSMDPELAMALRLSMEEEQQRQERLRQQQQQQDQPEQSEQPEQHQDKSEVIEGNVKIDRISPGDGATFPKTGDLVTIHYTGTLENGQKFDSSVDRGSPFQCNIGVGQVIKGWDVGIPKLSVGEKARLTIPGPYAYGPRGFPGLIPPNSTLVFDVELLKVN
# Sequence of Pre10 proteasome subunit C-terminally fused with Fpr1 (strain Pre10-FPR1) (S. cerevisiae) (P21242 other isoform, or with tags, fused parts or gaps): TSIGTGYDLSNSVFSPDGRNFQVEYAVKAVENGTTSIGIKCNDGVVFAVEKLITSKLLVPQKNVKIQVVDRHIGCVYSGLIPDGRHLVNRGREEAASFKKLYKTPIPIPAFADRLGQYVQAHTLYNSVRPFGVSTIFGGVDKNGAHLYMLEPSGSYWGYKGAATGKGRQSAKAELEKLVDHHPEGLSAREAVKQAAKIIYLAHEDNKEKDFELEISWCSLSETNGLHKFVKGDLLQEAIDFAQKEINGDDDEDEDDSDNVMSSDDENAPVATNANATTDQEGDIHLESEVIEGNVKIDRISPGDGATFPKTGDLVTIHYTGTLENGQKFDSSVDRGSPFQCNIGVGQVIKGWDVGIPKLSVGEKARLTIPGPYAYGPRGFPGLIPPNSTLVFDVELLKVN
substance,measurement,setting,value
HA epitope-tagged Tor-His3 expressed in yeast (p415-TOR-link-HIS3HA) (from UniProt P35169 1883-2078; P06633 1-220),"half-life of reporter degradation in vivo with rapamycin (cycloheximide chase, anti-HA Western)",[1],20 to 30 min
same,"half-life of reporter degradation in vivo with rapamycin (cycloheximide chase, anti-HA Western)",[2],20 to 30 min

# — patent US20050152888A1
